The values below come from patent US20210230272A1.

Assay [1] deals with IL10 antibody (Sino biological, Cat #SEKA10947). Briefly: ELISA, same conditions as the antigen-coated ELISA.
Assay [2] addresses human PD-L1 (human) (UniProt Q9NZQ7). Nature of the assay: ELISA, PD-L1 coated; control of LB320.
Assay [3] shares this target. Nature of the assay: ELISA, PD-L1 coated; control of LB319.
In another assay the target is mice CLDN18.2 (mice) (UniProt P56857). Briefly: cell ELISA, mCLDN18.2+ cells.
Assay [4] concerns the target human CLDN18.2 (human) (UniProt P56856). Briefly: flow cytometry, CF633 labeled antibody 1 µg/ml, hCLDN18.2+ cells.
For assay [5] the target is unchanged. Nature of the assay: flow cytometry, CF633 labeled antibody 10 µg/ml, hCLDN18.2+ cells.
For assay [6] the target is unchanged. Briefly: flow cytometry, CF488 labeled antibody 10 µg/ml, hCLDN18.2+ cells.
Assay [7] shares this target. Briefly: flow cytometry, CF488 labeled antibody 1 µg/ml, hCLDN18.2+ cells.

Chain of human PD-L1 (human) (Q9NZQ7 19-238): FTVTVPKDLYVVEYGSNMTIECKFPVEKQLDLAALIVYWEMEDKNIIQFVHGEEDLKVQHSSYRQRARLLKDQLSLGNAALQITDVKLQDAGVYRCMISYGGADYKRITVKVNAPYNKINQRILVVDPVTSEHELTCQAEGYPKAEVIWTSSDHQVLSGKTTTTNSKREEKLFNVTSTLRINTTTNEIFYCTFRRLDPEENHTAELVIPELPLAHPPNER

In turn, “IL10 (Peprotech, Cat #: 200-10) (from UniProt P22301 19-178) (ligand)” had an EC50 in assay [1] of 4530 pM.
Turning to LB318 (Durvalumab) (antibody), the EC50 in the assay with human PD-L1 (human) [2] and with human PD-L1 (human) [3] was 72 pM each time.
In the assay with mice CLDN18.2 (mice), Neg IgG (antibody) registered an Emax of 0.19. The Binding value (FACS fluorescence intensity) with human CLDN18.2 (human) [4] stood at 23; in the assay with human CLDN18.2 (human) [5], 23.2; with human CLDN18.2 (human) [6] it was 3480; with human CLDN18.2 (human) [7], 1750.
